Residue numbers refer to the chain shown, from its start.

First the molecules themselves.
T1: human ABCG2 (human, UniProt Q9UNQ0 1-655)
T1 construct: also called hG2; KPG2
T1 sequence: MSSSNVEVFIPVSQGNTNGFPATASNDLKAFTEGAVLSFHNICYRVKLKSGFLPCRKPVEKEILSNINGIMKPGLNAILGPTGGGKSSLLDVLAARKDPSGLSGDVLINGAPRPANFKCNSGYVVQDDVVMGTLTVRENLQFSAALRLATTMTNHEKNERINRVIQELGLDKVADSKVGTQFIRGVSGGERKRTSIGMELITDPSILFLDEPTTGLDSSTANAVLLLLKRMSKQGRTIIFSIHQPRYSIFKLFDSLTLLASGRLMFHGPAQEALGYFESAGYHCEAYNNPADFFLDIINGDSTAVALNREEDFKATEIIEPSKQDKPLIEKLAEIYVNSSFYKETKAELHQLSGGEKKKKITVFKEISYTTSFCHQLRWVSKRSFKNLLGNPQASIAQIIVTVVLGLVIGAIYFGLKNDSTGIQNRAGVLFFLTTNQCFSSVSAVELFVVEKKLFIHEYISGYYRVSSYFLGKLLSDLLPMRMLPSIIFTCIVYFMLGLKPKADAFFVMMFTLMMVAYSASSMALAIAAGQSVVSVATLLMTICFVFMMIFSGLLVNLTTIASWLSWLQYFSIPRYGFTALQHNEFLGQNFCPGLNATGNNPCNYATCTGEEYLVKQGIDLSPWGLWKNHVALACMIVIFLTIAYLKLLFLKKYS

T2: cynomolgus ABCG2 (Macaca fascicularis) (Macaca fascicularis (cynomolgus), UniProt Q5MB13 1-654 (rhesus entry))
T2 construct: also called cABCG2
T2 sequence: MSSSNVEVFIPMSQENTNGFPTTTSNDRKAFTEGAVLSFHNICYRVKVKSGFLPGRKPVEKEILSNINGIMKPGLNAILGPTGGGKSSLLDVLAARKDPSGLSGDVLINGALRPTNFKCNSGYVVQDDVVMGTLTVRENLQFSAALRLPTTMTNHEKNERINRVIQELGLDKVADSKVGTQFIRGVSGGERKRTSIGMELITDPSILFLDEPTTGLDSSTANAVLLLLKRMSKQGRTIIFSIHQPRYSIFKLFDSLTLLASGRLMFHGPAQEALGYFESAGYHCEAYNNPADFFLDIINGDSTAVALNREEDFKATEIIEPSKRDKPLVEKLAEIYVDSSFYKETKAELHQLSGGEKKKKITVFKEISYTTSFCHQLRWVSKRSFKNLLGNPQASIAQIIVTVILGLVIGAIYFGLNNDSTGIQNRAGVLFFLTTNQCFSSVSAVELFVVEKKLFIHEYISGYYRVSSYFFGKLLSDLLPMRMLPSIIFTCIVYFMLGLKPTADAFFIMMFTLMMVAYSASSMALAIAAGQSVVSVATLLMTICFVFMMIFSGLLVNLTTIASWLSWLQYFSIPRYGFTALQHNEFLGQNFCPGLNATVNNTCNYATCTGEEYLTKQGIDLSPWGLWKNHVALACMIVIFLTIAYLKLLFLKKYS

B1: G2.256 mouse (antibody, human IgG1, V domains shown)
VH: EVQLQQSGPELVKPGASLKISCKTFGYSFTGYYMHWVKQSPEKSLEWIGKIVPSTGGTTYNQKFKAKATLTVDKSSFTAYMQLKSLTSEDSAVYYCAREKVYGYDVYYFDYWGQGTTLTVSS
VL: DIVMSQSPATLSVTPGDRVSLSCRASQSISDYLHWYQQKSHESPRLLIKYASQSISGIPSRFSGSGSGSDFTLSINSVEPEDVGVYYCQNGHSFPWTFGGGTKLEIK
notes: Variable regions cloned onto human IgG1 constant heavy chain and human kappa constant light chain
B2: G2.629 rat (antibody, human IgG1, V domains shown)
VH: EVQLVESGGGLVQPGRSLKLSCAASGFIFSRFYMAWVRQAPTKGLEWVAYINTGGGTTYYRDSVKGRFTISRDNAKTTLYLQMDSLRSEDTATYYCTTLAAPWNYVMDAWGQGASVTVSS
VL: DVVMTQSPSLLSASVGDRVTLTCKGSQNINNFLAWYQQKLGEAPKLLTYKTNSLHTGIPSRFSGSGSGTDYTLTISSLHSEDLATYYCYQYNNGYTFGPGTKLELK
notes: as for B1
B3: G2.636 rat (antibody, human IgG1, V domains shown)
VH: EVKLVESGGGLVQPGRSLKLSCAASGFTFSRFYMAWVRQAPTKGLEWVAHISHGGDTTYYRDSVKGRFTISRDNAKSTLFLQMDSLRSEDTATYYCTTSAAPWNYVMDGWGLGASVTVSS
VL: B2 VL with V2I, T48I, P99A
notes: as for B1
B4: G2.631 rat (antibody, human IgG1, V domains shown)
VH: EVKLLESGGGLVQSGRSLKLSCAASGFIFSRFYMAWVRQAPRKGLEWVAYISNGAGSTYYRESVKGRFIISRDNAKSTLYLQMDSLRSEDTATYYCTTVAAPWNYVMDGWGQGASVTVSS
VL: B2 VL with D1N, V2I, V3Q, M4I, T22S, F32Y, T48I, P99A
notes: also called G.631
B5: G2.641 rat (antibody, human IgG1, V domains shown)
VH: B3 VH with V5E
VL: B2 VL with V2I, V3Q, T48I, P99A
notes: as for B1
B6: G2.642 rat (antibody, human IgG1, V domains shown)
VH: QIQLVQSGAELVKPGASVKLSCKTSGFTFSSNYISWLRQKPRQSLEWIAWIYSGTGGTYYNQKFTGKAQLTIDTSSNTAYMQLSSLTSEDSAIYYCARHVGLRYWYFDVWGAGTSVTVSS
VL: DIVLTQSPASLTVSLGQRATISCRASESVDSNGNSFMHWYQQKPGQSPKVLIYRASNLESGVPARFSGSGSRTDFTLTINPVEADDVATYYCQQSNEDPWTFGGGTKLEIKR
B7: G2.640 (antibody, human IgG1, V domains shown)
VH: EVKLEESGPGLVQPSQTLSLTCTVSGFSLTSDGVSWVRQPPGKGLEWIAAISSGGSTYYNSALKSRLSISRDTSKSQVFLKMNSLQTEDTAIYFCTRDTYYGYNQIPFVYWGQGTLVTVSS
VL: DIVIIQSPPSLSASLGDKVTISCQASQNIHRYIAWYQQKPGKAPRLLIRYTSTLESGTPSRFSGSGSGRDYSFSISNVESEDIASYYCLQYVNLWTFGGGTKLELK
notes: Raised in rats
B8: G2.760 rat (antibody, human IgG1, V domains shown)
VH: EVQLVESGGGLVQPGRSMKLSCAASGFTFSKSDMAWVRQAPTKGLKWVASIRYDGGNTYYRDSVRGRFTISRDNAKSTLYLQMDSLRSEDTATYYCSTAKAAISTPSYYVLDAWGQGASVTVSS
VL: DIGMTQSPTSMSKSVGDRVTMNCKASQNVGSNVDWFQQKTGQSPKLLIYKSSNRYTGVPARFTGSGSGTDFTFTISNMQAEDLAVYYCMQSNSYPPTFGGGTKLELK
B9: G2.643 mouse (antibody, human IgG1, V domains shown)
VH: VNLVESGPELVKPGTSVKISCKASGYRFTSYYVHWVKQRPGQGLEWIGWIFPGSDNTKYNEKFKGKATLTADTSSSTAYMQLSSLTSEDSAVYFCASIYYGYDGTLYFDYWGQGTSVTVSS
VL: DIVMTQSHTFMSTSVGDRVSVTCKASQNVGNNVAWYQQKPGQSPNALIYSASYRYSGVPDRFTGSGSGTDFTLTISNVQSEDLAEYFCQQYDRYPLTFGGGTKLEIK
notes: Recombinant antibody
B10: G2.748 rat (antibody, V domains shown)
VH: QVSLKESGPGMLQPSKTLSLTCSFSGFSLSTSGMVVNWIRQPSGKSLEWLAAIDWDGDKYYNPSLKHRLTVSKDTSNTQVVLKITSVDTADTATYYCARSIAPYRGWFGYWGQGTLVTVSS
VL: EIVLIQSPSSLPASLGERVTIICRASQDIGNNLNWYQQKPDGTIKPLIYFTSNFQSGVPSSFSGSRSGTDFSLTISSLEAEDFAMYYCQQDASLPWTFGGGTKLEIK

For the first assay, the target named is T1, human ABCG2. Kind of assay: flow cytometry (FACS) on 293T_ABCG2_OX cells. (In general: In flow cytometry, cells or beads pass a laser one at a time.)
For the molecule B1, the binding result is “binds”.

A further assay concerns the target T1, human ABCG2. As to the kind of experiment: flow cytometry titration on 293T_ABCG2_OX cells; column Affinity for human ABCG2 (nM).
Description: (§1) Cell Binding Assays. Antibody binding to cells was evaluated by flow cytometry. […] After incubating cells on ice for 30 min, cells were washed twice with flow cytometry buffer. Bound antibody was detected with PE-labeled F(ab′)₂ fragment goat anti-human IgG (Jackson ImmunoResearch) and evaluated on an Attune NxT flow cytometer.
What is called Kd is the free concentration of one partner at which half of the binding sites on the other are occupied at equilibrium, for simple one-to-one binding. The low end stands for a tighter complex, the high end for a looser complex. B2 displayed a Kd of 16.8 nM.

B3 had a Kd of 17 nM.

The molecule B4 registered a dissociation constant Kd of 14.2 nM.

B5 registered a Kd of 23 nM.

Molecule B6 gave a Kd of 48 nM.

Another assay has as its target T2, cynomolgus ABCG2 (Macaca fascicularis). As to the kind of experiment: flow cytometry on cells expressing cynomolgus ABCG2.
Description: as §1
Turning to B2, the binding result was “binds”.

Take B3: the binding result was “binds”.

Turning to B5, the binding result was “binds”.

Another assay has the same target. Kind of assay: flow cytometry on cells expressing cynomolgus ABCG2; paragraph 395: non-significant binding = -.
Description: as §1
With B1, the binding result is given as “no binding”.

B6: the binding result is reported as “no binding”.

Another assay addresses T1, human ABCG2. As to the kind of experiment: cell-based or functional assay.
For the molecule B7, the “IC50 of topotecan cytotoxicity in the presence of the antibody” value (shortened to “IC50 of topotecan cytotoxicity”) was 6.9 nM.

B2: the “IC50 of topotecan cytotoxicity” value came to 2.21 nM.

Regarding B3, the “IC50 of topotecan cytotoxicity” value turned out to be 0.45 nM.

For the molecule B4, the “IC50 of topotecan cytotoxicity” value was determined as 1.42 nM.

Take B5: the “IC50 of topotecan cytotoxicity” value is 1.04 nM.

B6: the “IC50 of topotecan cytotoxicity” value is 9.08 nM.

The next assay has as its target T2, cynomolgus ABCG2 (Macaca fascicularis). Kind of assay: flow cytometry, 293T cells overexpressing cynomolgus ABCG2.
Description: as §1
Take B8: the binding result is “binds”.

B7: the binding result was “no binding”.

With B9, the binding result is given as “binds”.

In the case of B10, the binding result is recorded as “binds”.

Another assay deals with T1, human ABCG2. As to the kind of experiment: flow cytometry, 293T cells overexpressing human ABCG2.
Description: as §1
With B8, the binding result is “binds”.

B7: the binding result is on record as “no binding”.

Consider B9, for which the binding result was “binds”.

Regarding B10, the binding result is on record as “binds”.

Values taken from patent US20230212305A1 (published 2023).
